Results reported in the DeepSol protein solubility set.

assay: soluble on expression in E. coli; label from the status in PepcDB or PDB records

**Q.** For “RDIAQRITGATLRAPPCHEEVREAIRDAVGRTLVSNRKVGVAVSGGLDSTILCSELDSLGITDLDLISIQALGSQDGITDLSALELKGEAWKSWRLTASRFDPATYWRDLRRAIAILGEPTQMTSAPLYLGLAEKAAEAGVVVLLLGEGADELFCGYRSYLPMLSGWSLRDFLFRPLERAVCQRLFSGEIQARCAAALDVFTRALPEGDQWTQLRAAEMSHNLEPLLLRADHTLMRCSIEGRTPFLHGDVADLAFSLPIDSLLSPNQTKVFLRQAYFRDLPAHFSTEIKKPFRAPVATWFVGPLKAWLTEEFSRQEAVFACLGIEPGGLEHVLTKTAQGHARMAKVAFCLLTLGFWIDWL”, which “soluble on expression in E. coli” value is on record?
**A.** not soluble

**Q.** With “MYIVIAGGGEMGGELARALEKTHDVVVIDRNPQARERFASLDVKVVVGGATDPDTLREAGVDRADLFVASTDSDEINLLASLLAKGLGAKEAFCFVGKGGYVEVLTDPRTAEILGTRIDRVLWPQRAMAREIVEVILVPWAVDTEVLAGGRLRFVEYRVKEGGEYVHRLLSGEKWPEGVLLAGVVREGTFLSFAHPEFPELILEPGDKLLFVATQKAFSELAAYFTEGPGVRRVMVIGGGNVGFMVAQGLLKRRVEVVIVERNAERCQWLSEELPGALVIQGDGTDIELLEAEGMAEADAVVAVTDHDEKNLLASLLAKQMGVRKVITRVSRSETRRLFEQVGIDLALTPRQAAVREVLDWIGPENVEHIATLDESIEVLEVLVSEGAAPKALRDLVRPDAVPVALERDHRIFLYEEGLGLLPGDRLYLVAAREVADEVLAPFFPE” as the sequence, how does the “soluble on expression in E. coli” value read?
**A.** soluble

**Q.** For “GKVLDAIIQEKKSGRIPGIYGRLGDLGAIDEKYDIAISSCCHALDYIVVDSIDTAQECVNFLKKHNIGIATFIGLDKMTVWAKKMSKIQTPENTPRLFDLVKVKNEEIRQAFYFALRDTLVANNLDQATRVAYQRDRRWRVVTLQGQIIEQSGTMSGGLEHHHHHH”, which “soluble on expression in E. coli” value is on record?
**A.** soluble

**Q.** Which “soluble on expression in E. coli” value does the source give for “MGSDKIHHHHHHMPTIAEKLKSRESDLTRAERQLSAAILDNYPIPGLGSITELAELAEVSTPTVARMVQKLGFSGYPEFQHALREELREIISNPVEKRAEQAPELPEGHMLNRYAVAVYDNIRATLENVNLEEFDTLCALLADTNSRVHIAGGRLSGTLAQNFYLHLQMIRRDVFMIPPRASWTHSVLDLLPGDTLILFDIRRYENATLLLAEMAHERGVKVVLFTDQWRSPIQKEATFTFAARIAVPSAWDSGVALLLLIESMIAKIQEDHWDTVKARNDELEAAFDRTRLFRKFT” here?
**A.** not soluble

**Q.** For “MKIMAICGSGLGSSFMVEMNIKKVLKKLNIDAEVEHSDLSSATPGAADLFVMAKDIAASASVPESQLVVINNIIDINELETQLRAWFAKQ”, which “soluble on expression in E. coli” value is on record?
**A.** not soluble

**Q.** For “MARAIWKGAISFGLVHIPVALNTAVRTERVDFDWLDKRSMEPVGYKRVNKVTGKEIDKDNIVKGVEFEKGRYVVISEEEIRKARPETTQTIDIFSFVEAGDIPLQHFDTPYYLTPDRRGGKVYALLRETLEKTGKVALATVVLHTRQHLALLRPLDHALVMITLRWPEEVRGLETLELDASVT”, which “soluble on expression in E. coli” value is on record?
**A.** not soluble

**Q.** With “MNVMMQKVHGSENDFFLLDETQFERSLTAEEIEQLRIQLCSRETGLLAGADGLLLVGEGTHGTSNARMRVINSDGSEASMCGNGLRTVARYLAEKNQEKSFTVETMFADLKVRQAPNLAEEVATYQVEISPVSFEAVTIPMHLGVQTLIDEIVPALSNTIRFTAVAVPNPHLVAFVDHETLNGPEFERIATYVNNENPYFPEGINVSFVEILGKNQLFVRTYERGVGFTSACGTAMCASSLLYTLLKDGVFYEEITVKNTGGMVKTVVHETSDGSYWMELIGNATITHLIEGSLTDLLNGAFEKITITETNEQKHYQEFLQTLSQK” as the sequence, how does the “soluble on expression in E. coli” value read?
**A.** not soluble

**Q.** With “MSLANKPLAKALETISGIPITPFRKSDGSIDWHHYKETVDRIVDNGIDVIVPCGNTSEFYALSLEEAKEEVRRTVEYVHGRALVVAGIGYATSTAIELGNAAKAAGADAVMIHMPIHPYVTAGGVYAYFRDIIEALDFPSLVYFKDPEISDRVLVDLAPLQNLVGVKYAINDLPRFAKVVRSIPEEHQIAWICGTAEKWAPFFWHAGAKGFTSGLVNLLPQKAVEMLEALRNNDNDAVWRIWEDIVPFEDLRGKYNQGNNVVVIKEAMEMLRQNAGVTRAPVNELSNEDKQLVTELLSSWKLLQPTKGEGHHHHHH” as the sequence, how does the “soluble on expression in E. coli” value read?
**A.** soluble

**Q.** Which “soluble on expression in E. coli” value does the source give for “MRVLALSAVFLVASIIGMPAVAKEWQENKSWNAHFTEHKSQGVVVLWNENKQQGFTNNLKRANQAFLPASTFKIPNSLIALDLGVVKDEHQVFKWDGQTRDIATWNRDHNLITAMKYSVVPVYQEFARQIGEARMSKMLHAFDYGNEDISGNVDSFWLDGGIRISATEQISFLRKLYHNKLHVSERSQRIVKQAMLTEANGDYIIRAKTGYSTRIEPKIGWWVGWVELDDNVWFFAMNMDMPTSDGLGLRQAITKEVLKQEKIIP” here?
**A.** soluble

**Q.** With “MVTREEFVARFGGVFEHSPFIAERAYDAGGAGLELTAKAVHGALCAQFRVASEAERLGVLRAHPDLAGKLAIAGELTADSRNEQAGAGLDRLSPQEHARFTQLNSAYTEKFGFPFIIAVKGLNRHDILSAFDTRIDNNAAQEFATATGQVEKIAWLRLASMLPEGLEHHHHHH” as the sequence, how does the “soluble on expression in E. coli” value read?
**A.** soluble

**Q.** Which “soluble on expression in E. coli” value does the source give for “MIDNLIKKEFLAHKEALEKSLEGLQEALKQSVHLLIETLENQGKILICGNGGSASDAQHFAAELTGRYKLERKGLSAISLNTDISALTAIANDYGYEEVFARQVEALGVKNDVLIGISTSGNSKNVLKAYEKAKDLEMKTLSLAGRDGGKMKPLSDMALIVPSDDTPRIQEMHILMIHILCDCIERHFAHKN” here?
**A.** not soluble

**Q.** For “MSLFLITNRKLVNREKYFNTIEEAGKYGVKNIILREKDLSTKELIKIYIKIKELVTEETNIIINSNIEATMILKEKFIHLSFKDFKRNLEEVKSLQVGVSVHSILEAIEADRLGASYILVSPIFETQCKKGVTPKGINFIKEIKEKVNCNVIALGGINEHNFKEVLGAGADDFACMSLLFMSNNIKKSLYTFKSLEGHHHHHH”, which “soluble on expression in E. coli” value is on record?
**A.** not soluble

**Q.** For “GPGSMFLSLANKLVVSRQRGSSCERMAQPKERASISSEELVVWKAAERVRKGASLPLSRVARCIASATKLLKVETKVVERVCGDTIVFGPIRGHAADFANILLTKVLPNRCVRNIVFLGNYIDGAHQSLGVLFLIAALIVCSRFHIVPLIGKHEMMYPILSETFGSLRNEMLLCCTRRRQPLEQYESIMKEFFSVLPIACVVENKFFCVAGGPSSKFRTLKEIELITMTQEASNEFVLNEPMDEDEERIADRSAFVASQGTELAFRYTFNAACNFLSRNKLAMLIVGMEYHMSLPDYDSFARPNHYKESIYFPGYMLGRIHPESQLPAVLSIFSAPSFCGVNRNNACIAEIAGNRLVVQELGVYAKRPLVTPGTQDHAFSWAQPMLERAVVAIARDIIRGVIKEDAATDDDAHRKRLEEVAVSKMRRMCMLLRTHNIPFPDVPKLTFR”, which “soluble on expression in E. coli” value is on record?
**A.** not soluble

**Q.** With “MEQPEKNIKLAYDGEIHLAVGASKTEKKWKNRQMSWSDFTQRLKTPTVTQETVEDYKKMPKSKQGEVKDVGAFIGGWLKEGRRKRGNTQQRSLVTLDADSTTLDFWDDVQLLFDHAAAVYTTHSHLVKGPRYRLIIPLSRPVTAEEYEPLARKLAEFFGMDNFDDTTYQAERLMYWPSHSIDGEYFTDNIDLPWVDPDEILSQYEDWRDASFWPESSRGHSIRERQAKKAGDPLEKKGIVGAFCRTYDIISAIETFLPDIYGSTGREDRWTFLEGSTSGGLVIYDDKFAYSHHGTDPVGDQLVNAFDLVRIHLFGDLDEDVKPTTRIDRYPSFKAMREFAMEDKQVKTLIQSEKLSQALEDFDGELDELEEDDKDWFTKLDLEIDEYGQIMASAKNLEVIMLNDPNLKKKIFMNSFSNRIEVKDNLPWRKLDRDKMWKDSDDAGLRVYIEKIYGIVNRGKIDDALVQEIERNSYDPVKEYLESLHWDGVPRVETLLIDYLGAEDTPFIRVVTKKFLTAAVGRIFVPGIKFDYMLVTSGPQGIGKTLLPAKLAGDWFSNSLEGVTGKDSYEALQGVWIMEMGELSATKKADIEATKHFISKQEDIFRVAYGRHKSYFKRRCVFWGTTNDNEFLRDKTGNRRFWPVDVGIQPIKNKVWEMTDETRNQIWAEAVELWQAGEPLYLTDEQEKLALEAQEMHTETSSMEGEILEYLEIPITEDWYKRSKQERREYIQGWGTDIQEEGEIVRNKVCIAEVWNELYNGDSKNIHPAKAAEIRQVLSHLSGWEKNSKGNKGRLRFGPGYGVQVAYLRVTP” as the sequence, how does the “soluble on expression in E. coli” value read?
**A.** not soluble

**Q.** For “MASRLLRGVGALAAQALRAHGPRGAAVTRSMASGGGVPTDEEQATGLEREIMIAAQKGLDPYNMLPPKAASGTKEDPNLVPSISNKRIVGCICEEDNCTVIWFWLHKGESQRCPNCGTHYKLVPHQMAH”, which “soluble on expression in E. coli” value is on record?
**A.** soluble

**Q.** With “MGSDKIHHHHHHMPAIIKQFFFKSHEMTLSDPRFLSLNQWLNAYFSDEVTPVLISGDASFRRYFRITTPDATFIAADSPPQLVPIAPFIALSNAYAAVGLTVPKVIHADAAQGFMLMSDLGDTQLLSVLNVQNVADYYRQALDLLPQVASVVASQHLDSGLVQPLPLYDEAFVRRELHIFTEWLLGTHLNLSLDESEQQMLSHSFDLLVDYALSQPSVGMHRDFHSRNLMLQAGELCVIDFQDAVVGPVTYDAVSLLRDCYIRWPQPLVADLMQYHYQQALALGFIPALTTLEQYQTWFDLMGLQRHIKAVGIFARLNYRDSKPAYMADIPLTLTYIVDIAMQYPELVPFAHWLTRRVLPAFTASQSLSEVKQ” as the sequence, how does the “soluble on expression in E. coli” value read?
**A.** not soluble

**Q.** For “KVMMPKVEERDDSEAPKAFFSEYEICNPALDGKSVREVALLLKRPFVITRVWHNGKVEIPTSDMILYFGDHILAVSGEEDTSQLEILFGKREMKDWNRPDIDWNSVDKQLVSRRLVITRPKLNGVRLGMLKIRNLYGVNISRVDRAGVELLPDRDLRLQLGDRLTVVGEGKAVERVAEILGDEVKQLDNPH”, which “soluble on expression in E. coli” value is on record?
**A.** not soluble

**Q.** With “GMMNTTTLDRYFDLFDASRTDEKAFDDLISLFSDEITFVLNGQEQHGIDAWKQFVRMVFTANQDIKHMYAGWVPSETGDTMETRWAVCGKSADGSVFTQDGTDIARLNADGKIVYLANVPDDTAMFNQYND” as the sequence, how does the “soluble on expression in E. coli” value read?
**A.** soluble

**Q.** Which “soluble on expression in E. coli” value does the source give for “MSAPINKVLIADDIEQECVDILKQNGIEVTVKTKQTKDELLVTLPQHDAVIVRSATKITAELLAASAGKLKLVGRAGTGVDNIDVPAASANKILVMNTPQANSRSAAELTCTLILSLSRHVPQAAASMKAGKWARKDFMGEEVYGRTLAVLGLGRIGSEVAVRLQAFGMKVIGFDPMVTKEQAEAKNIELLSLEQIWPQADYITVHVPLIKQTENLINKETLAKCKKGVRIINVARGGIVNEVDLVESLNAGHAKGAAFDVFEQEPPTFRELIDHPLVIATPHLGASTIDAQLRVASEIADNIVQYNKGTMLGVLNAREVLN” here?
**A.** not soluble

**Q.** For “MGSDKIHHHHHHMKYGIVGYSGRMGQEIQKVFSEKGHELVLKVDVNGVEELDSPDVVIDFSSPEALPKTVDLCKKYRAGLVLGTTALKEEHLQMLRELSKEVPVVQAYNFSIGINVLKRFLSELVKVLEDWDVEIVETHHRFKKDAPSGTAILLESALGKSVPIHSLRVGGVPGDHVVVFGNIGETIEIKHRAISRTVFAIGALKAAEFLVGKDPGMYSFEEVIFGGE”, which “soluble on expression in E. coli” value is on record?
**A.** soluble

**Q.** With “MSLESILDVLSVMYINAQLPREQRHRWRLLFSSELHGHSFSQLCGHITHRGPCVAVLEDHDKHVFGGFASCSWEVKPQFQGDNRCFLFSICPSMAVYTHTGYNDHYMYLNHGQQTIPNGLGMGGQHNYFGLWVDVDFGKGHSRAKPTCTTYNSPQLSAQENFQFDKMEVWAVGDPSEEQLAKGNKSILDADPEAQALLEISGHSRHSEGLREVPDDEGHHHHHH” as the sequence, how does the “soluble on expression in E. coli” value read?
**A.** not soluble

**Q.** With “MLGYAFPSILGNLMSKIYQMDAVDWLKTLENCSVDLFITDPPYESLEKYRQIGTTTRLKESKSSSNQWFSVFPNTRFEELFREVYRVLKKGSHFYLFCDQETMFLAKPIAESVGFKFWKPIVWDKCAIGMGYHYRARYEFILFFEKGKRKLNDLSVPDVLEYKRVWKGYPTEKPVELLEVLIRQSSSENEIVADSFFGSGSTLIAANNLSRKYIGCDISSSAHEYFKNRA” as the sequence, how does the “soluble on expression in E. coli” value read?
**A.** not soluble
